In patent US11471462B2, “Compositions and methods for detecting and treating diabetes” (THE BROAD INSTITUTE, INC., priority 2016, dated 2022):

B1: SLC16A11 (protein, UniProt Q8NCK7 1-471, looked up)
Monocarboxylate transporter 11: MPAPQRKHRRGGFSHRCFPTPQTAMTPQPAGPPDGGWGWVVAAAAFAINGLSYGLLRSLGLAFPDLAEHFDRSAQDTAWISALALAVQQAASPVGSALSTRWGARPVVMVGGVLASLGFVFSAFASDLLHLYLGLGLLAGFGWALVFAPALGTLSRYFSRRRVLAVGLALTGNGASSLLLAPALQLLLDTFGWRGALLLLGAITLHLTPCGALLLPLVLPGDPPAPPRSPLAALGLSLFTRRAFSIFALGTALVGGGYFVPYVHLAPHALDRGLGGYGAALVVAVAAMGDAGARLVCGWLADQGWVPLPRLLAVFGALTGLGLWVVGLVPVVGGEESWGGPLLAAAVAYGLSAGSYAPLVFGVLPGLVGVGGVVQATGLVMMLMSLGGLLGPPLSGFLRDETGDFTASFLLSGSLILSGSFIYIGLPRALPSCGPASPPATPPPETGELLPAPQAVLLSPGGPGSTLDTTC
B2: CANX (protein)
chain: HDGHDDDVIDIEDDLDDVIEEVEDSKPDTTAPPSSPKVTYKAPVPTGEVYFADSFDRGTLSGWILSKAKKDDTDDEIAKYDGKWEVEEMKESKLPGDKGLVLMSRAKHHAISAKLNKPFLFDTKPLIVQYEVNFQNGIECGGAYVKLLSKTPELNLDQFHDKTPYTIMFGPDKCGEDYKLHFIFRHKNPKTGIYEEKHAKRPDADLKTYFTDKKTHLYTLILNPDNSFEILVDQSVVNSGNLLNDMTPPVNPSREIEDPEDRKPEDWDERPKIPDPEAVKPDDWDEDAPAKIPDEEATKPEGWLDDEPEYVPDPDAEKPEDWDEDMDGEWEAPQIANPRCESAPGCGVWQRPVIDNPNYKGKWKPPMIDNPSYQGIWKPRKIPNPDFFEDLEPFRMTPFSAIGLELWSMTSDIFFDNFIICADRRIVDDWANDGWGLKKAADGAAEPGVVGQMIEAAEERPWLWVVYILTVALPVFLVILFCCSGKKQTSGMEYKKTDAPQPDVKEEEEEKEEEKDKGDEEEEGEEKLEEKQKSDAEEDGGTVSQEEEDRKPKAEEDEILNRSPRNRKPRRE
B3: DDOST (protein)
chain: SGPRTLVLLDNLNVRETHSLFFRSLKDRGFELTFKTADDPSLSLIKYGEFLYDNLIIFSPSVEDFGGNINVETISAFIDGGGSVLVAASSDIGDPLRELGSECGIEFDEEKTAVIDHHNYDISDLGQHTLIVADTENLLKAPTIVGKSSLNPILFRGVGMVADPDNPLVLDILTGSSTSYSFFPDKPITQYPHAVGKNTLLIAGLQARNNARVIFSGSLDFFSDSFFNSAVQKAAPGSQRYSQTGNYELAVALSRWVFKEEGVLRVGPVSHHRVGETAPPNAYTVTDLVEYSIVIQQLSNGKWVPFDGDDIQLEFVRIDPFVRTFLKKKGGKYSVQFKLPDVYGVFQFKVDYNRLGYTHLYSSTQVSVRPLQHTQYERFIPSAYPYYASAFSMMLGLFIFSIVFLHMKEKEKSD
B4: SEC61A2 (protein)
chain: MGIKFLEVIKPFCAVLPEIQKPERKIQFREKVLWTAITLFIFLVCCQIPLFGIMSSDSADPFYWMRVILASNRGTLMELGISPIVTSGLIMQLLAGAKIIEVGDTPKDRALFNGAQKLFGMIITIGQAIVYVMTGMYGDPAEMGAGICLLIIIQLFVAGLIVLLLDELLQKGYGLGSGISLFIATNICETIVWKAFSPTTINTGRGTEFEGAVIALFHLLATRTDKVRALREAFYRQNLPNLMNLIATVFVFAVVIYFQGFRVDLPIKSARYRGQYSSYPIKLFYTSNIPIILQSALVSNLYVISQMLSVRFSGNFLVNLLGQWADVSGGGPARSYPVGGLCYYLSPPESMGAIFEDPVHVVVYIIFMLGSCAFFSKTWIEVSGSSAKDVAKQLKEQQMVMRGHRDTSMVHELNRYIPTAAAFGGLCIGALSVLADFLGAIGSGTGILLAVTIIYQYFEIFVKEQAEVGGMGALFF
B5: HSDI7B12 (protein, UniProt Q53GQ0 1-312, looked up)
Very-long-chain 3-oxoacyl-CoA …: MESALPAAGFLYWVGAGTVAYLALRISYSLFTALRVWGVGNEAGVGPGLGEWAVVTGSTDGIGKSYAEELAKHGMKVVLISRSKDKLDQVSSEIKEKFKVETRTIAVDFASEDIYDKIKTGLAGLEIGILVNNVGMSYEYPEYFLDVPDLDNVIKKMININILSVCKMTQLVLPGMVERSKGAILNISSGSGMLPVPLLTIYSATKTFVDFFSQCLHEEYRSKGVFVQSVLPYFVATKLAKIRKPTLDKPSPETFVKSAIKTVGLQSRTNGYLIHALMGSIISNLPSWIYLKIVMNMNKSTRAHYLKKTKKN

Tested on: SLC16A11
Test: SLC16A11 protein-protein interaction study (immunoprecipitation, quantitative mass spectrometry)
Parameters: species or system human
Conditions: Blandt-Altman; for BA log fold change: putative SLC16A11^REF interaction partners, immunoprecipitation from HEK293T cells vs empty vector control
From the text: Alternatively, these variants may result in reduced transport because they disrupt protein-protein interactions responsible for correct SLC16A11 function. To explore this possibility, SLC16A11 was immunoprecipitated from HEK293T cells expressing either REF or T2D risk SLC16A11-V5 or empty vector control and quantitative mass spectrometry was used to define the SLC16A11 interactome.
Another mechanism through which the variants could affect activity is through disruption of protein-protein interactions. To explore this possibility, quantitative mass spectrometry-based protein-protein interaction studies were performed to define the SLC16A11 interactome and evaluate if the T2D risk coding variants alter any interactions.
Beads were then washed once with lysis buffer and three times with wash buffer. After the last wash, residual wash buffer was removed, 10 μL fresh wash buffer was added, and beads were stored at −80° C. until analysis by the Proteomics Platform at the Broad Institute, as detailed in the “Proteomics Methods for SLC16A11 Protein Interaction Studies” below.
The beads from immunopurification were washed once with IP lysis buffer, then three times with PBS, the three different lysates of each replicate were resuspended in 90 uL digestion buffer (2M Urea, 50 mM Tris HCl), 2 ug of sequencing grade trypsin added, 1 hour shaking at 700 rpm. The supernatant was removed and placed in a fresh tube. The beads were then washed twice with 50 uL digestion buffer and combined with the supernatant. The combined supernatants were reduced (2 uL 500 mM DTT, 30 minutes, RT), alkylated (4 uL 500 mM IAA, 45 minutes, dark) and a longer overnight digestion performed: 2 ug (4 uL) trypsin, shake o/n, The samples were then quenched with 20 uL 10% FA and desalted on 10 mg SepPak columns.
Desalted peptides were labelled with iTRAQ reagents according to the manufacturer's instructions (AB Sciex, Foster City, Calif.). Peptides were dissolved in 30 μl of 0.5 M TEAB pH 8.5 solution and labeling reagent was added in 70 ul of ethanol. After 1 h incubation the reaction was stopped with 50 mM Tris/HCl pH 7.5. Differentially labelled peptides were mixed and subsequently desalted on 10 mg SepPak columns.
Reconstituted peptides were separated on an online nanoflow EASY-nLC 1000 UHPLC system (Thermo Fisher Scientific) and analyzed on a benchtop Orbitrap Q Exactive Plus mass spectrometer (Thermo Fisher Scientific). The peptide samples were injected onto a capillary column (Picofrit with 10 μm tip opening/75 μm diameter, New Objective, PF360-75-10-N-5) packed in-house with 20 cm C18 silica material (1.9 μm ReproSil-Pur C18-AQ medium, Dr. Maisch GmbH, r119.aq). The UHPLC setup was connected with a custom-fit microadapting tee (360 μm, IDEX Health & Science, UH-753), and capillary columns were heated to 50° C. in column heater sleeves (Phoenix-ST) to reduce backpressure during UHPLC separation. Injected peptides were separated at a flow rate of 200 nL/min with a linear 80 min gradient from 100% solvent A (3% acetonitrile, 0.1% formic acid) to 30% solvent B (90% acetonitrile, 0.1% formic acid), followed by a linear 6 min gradient from 30% solvent B to 90% solvent B. Each sample was run for 120 min, including sample loading and column equilibration times. The Q Exactive instrument was operated in the data-dependent mode acquiring HCD MS/MS scans (R=17,500) after each MS1 scan (R=70,000) on the 12 top most abundant ions using an MS1 ion target of 3×10^6 ions and an MS2 target of 5×10^4 ions. The maximum ion time utilized for the MS/MS scans was 120 ms; the HCD-normalized collision energy was set to 27; the dynamic exclusion time was set to 20 s, and the peptide match and isotope exclusion functions were enabled.
All mass spectra were processed using the Spectrum Mill software package v6.0 pre-release (Agilent Technologies) which includes modules developed by us for iTRAQ-based quantification. […]

Molecule	BA log fold change	B.A. logFC (enrichment of protein immunoprecipitated from HEK293T cells expressing P2D SLC16A11^REF-V5 vs empty vector control, quantitative mass spectrometry)
B1	1.34	–
B2	1.38	–
B3	1.65	–
B4	1.59	–
B5	–	1.26
